Key:
[1] = system: interferon-stimulated genes IFIH1, ISG20, CXCL9, and CD74; experiment: IFNG induction of interferon-stimulated genes, RT-qPCR in MB135 cells with doxycycline-inducible transgenes; assay type: cell-based, human; settings: MB135 cells, doxycycline-induced transgene, continuous protocol, IFNG 16 h
Experimental: All myoblast experiments were conducted in immortalized MB135 or MB200 myoblast cell lines (isolated from a control or FSHD2 subject, respectively cultured in Ham's F-10 Nutrient Mix (Gibco) supplemented with 15% fetal bovine serum (Hyclone), 100 U/100 μg/ml penicillin/streptomycin (Gibco), 1 μM dexamethasone (Sigma), and 10 ng/ml recombinant human basic fibroblast growth factor (PeproTech). To differentiate the myoblasts to myotubes, media was changed to DMEM supplemented with 10 μg/ml insulin (Sigma) and 10 μg/ml transferrin (Sigma). Cell lines containing doxycycline-inducible transgenes were additionally cultured with 2 μg/mL puromycin (Sigma). Transgenes were induced with 1 μg/mL of doxycycline (Sigma) for 4 hours prior to other treatments for a total of 20 hrs. The Kitra-SRS cells (RRID:CVCL_YI69) were provided by Dr. H. Otani and Osaka University (Nakai et al., 2019) and were cultured in DMEM supplemented with 10% fetal bovine serum (Hyclone) and 100 U/100 μg/ml penicillin/streptomycin (Gibco). Biological replicates consisted of independent but parallel experiments, such as simultaneously stimulating three cell culture plates with IFNγ. Technical replicates consisted of repeat measurements of the same biological sample, such as loading the same biological sample in triplicate for analysis by RT-qPCR.
Myoblasts were transfected with either (final concentrations) 10 μM 2′,3′-cGAMP (Sigma Aldrich), 2 μg/mL poly(I:C) (Invitrogen), or 1 μg/mL 3′ppp-dsRNA RIG-I ligand (Dan Stetson Lab, UW) using Lipofectamine 2000 according to manufacturer's protocol, or were stimulated with 1000U IFNβ (PeproTech) or 200 ng/ml IFNγ (R+D Systems) by addition directly to cell culture medium. After 16 hours of immune stimulation, RNA was collected from cells using the NucleoSpin RNA Kit (Macherey-Nagel) according to manufacturer's instructions. RNA samples were quantified by nanodrop and 1 μg of RNA per sample was treated with DNase I Amplification Grade (Thermo Fisher), and then synthesized into cDNA using the Superscript IV First-Strand Synthesis System, including oligo dT primers (Invitrogen). qPCR was run in 384-well plates on an Applied Biosystems QuantStudio 6 Flex Real-Time PCR System (ABI) and analyzed in Microsoft Excel.

[2] = target: T1, pSTAT1-Y701, pSTAT1-S727 (Homo sapiens, UniProt P42224); experiment: Western analysis of whole-cell extracts for STAT1 and pSTAT1; assay type: cell-based; settings: doxycycline and IFNG
T1 construct: co-localization of endogenous STAT1 and pSTAT1 701 with the iDUX4-CTD; endogenous in cells; host or cells: MB135 human myoblasts carrying doxycycline-inducible DUX4 / DUX4-CTD / DUXB / Dux transgenes, with or without IFNG
T1 sequence (P42224 1-750): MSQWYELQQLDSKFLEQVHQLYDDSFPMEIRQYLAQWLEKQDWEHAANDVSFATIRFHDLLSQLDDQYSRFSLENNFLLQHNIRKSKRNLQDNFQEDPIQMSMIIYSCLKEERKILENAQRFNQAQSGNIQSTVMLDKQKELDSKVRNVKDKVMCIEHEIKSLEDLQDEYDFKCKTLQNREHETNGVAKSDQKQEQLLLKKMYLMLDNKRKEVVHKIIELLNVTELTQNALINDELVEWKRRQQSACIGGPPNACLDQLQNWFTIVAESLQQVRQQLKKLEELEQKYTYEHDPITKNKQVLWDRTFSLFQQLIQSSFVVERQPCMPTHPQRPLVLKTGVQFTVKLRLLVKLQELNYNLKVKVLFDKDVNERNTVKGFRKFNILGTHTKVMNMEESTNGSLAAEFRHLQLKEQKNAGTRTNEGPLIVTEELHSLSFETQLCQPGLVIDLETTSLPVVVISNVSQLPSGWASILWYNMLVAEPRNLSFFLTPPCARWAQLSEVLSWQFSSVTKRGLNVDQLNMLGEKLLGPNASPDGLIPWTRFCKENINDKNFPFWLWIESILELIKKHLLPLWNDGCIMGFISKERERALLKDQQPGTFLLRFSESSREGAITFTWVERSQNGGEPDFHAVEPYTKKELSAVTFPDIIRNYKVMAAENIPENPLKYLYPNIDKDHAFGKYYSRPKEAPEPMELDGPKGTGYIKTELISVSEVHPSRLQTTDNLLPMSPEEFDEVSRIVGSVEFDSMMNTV
Experimental: Protein samples were harvested in RIPA buffer [150 mM NaCl, 1% NP-40, 0.5% Na-deocycholate, 1% SDS, 25 mM Tris-HCl pH7.4] supplemented with protease and phosphatase inhibitor tablets (Pierce), followed by sonication in Diagenode Bioruptor. Lysate was cleared by centrifugation at 16000×g and quantified using a Pierce BCA assay (Thermo Fisher Scientific). Samples were run on NuPAGE precast polyacrylamide gels (Invitrogen) and transferred to PVDF membrane. Membranes were blocked in PBS containing 0.1% Tween-20 and 5% non-fat dry milk before overnight incubation at 4° C. with primary antibodies (see resource table for a list of antibodies used in this study). Membranes were incubated with horseradish peroxidase-conjugated secondary antibodies for 1 hour at room temperature and SuperSignal chemiluminescent substrate (Thermo Scientific) was used for detection on film with a Mini-medical 90 processor. Membranes were stripped with Restore Western Blot Stripping Buffer (Pierce).

B1: DUXB: related factor in the DUX family, doxycycline-inducible 3×FLAG-NLS-DUXB control, SEQ ID NO:106 (protein)
chain: DYKDHDGDYKDHDIDYKDDDDKPPKRMRREPKKKRKVNLEGTSGGILQKEFWRNRIQYNQSQKDILQSWFQHDPFPDKAAREQLAKEIGVPESNIQVWFKNYRVKQRKLDYKCFSEKDQTQGHDQSQHLTQEYLPKEARQKQTFITWTQKNRLVQAFERNPFPDIATRKKLAEQTGLQESRIQMWFQKQRSLYLKKSRMEPMNLLVDDPNERPDATVGWHPINLFLPTDSSHYFSCSHSSSGHETLPPVLPSTQAPWDPFRFHVSQGPNVMIMQPTQAVQEGEKSDQPLIIPNHLLTLPILTKDLDTPTPFWLQYQEEHQNHKEHSGSGVPQVKSHSQPEPEHREQQPLNLGQFDISNILQRWDEICQALLAEWEPLKGTH
modifications: 3xFLAG-NLS tag
[1]
  suppression of IFNG induction of ISGs (IFIH1, ISG20, CXCL9, CD74): did not suppress ISG induction by IFNG
[2]
  abundance of pSTAT1 and total STAT1: did not increase either form of phosphorylated STAT1
